The values that follow come from patent US20070122422A1, “Sodium-independent small neutral amino acid transporter transporting L- and D- amino acids” (Japan Science and Technology Corporation, priority 2000, published 2007).

The target in data set [1] is T1, LAT1 of rat (co-expressed with 4F2hc of rat) (Rattus norvegicus, UniProt Q63016, Q506C).
T1 construct: expressed in transfected cells; host or cells: oocytes injected with cRNA (per Kanai et al., J. Biol. Chem. 273:23629)
Nature of the data set: Release of injected 14C-leucine from oocytes co-expressing LAT1 and 4F2hc of rat. Format: cell-based. Particulars: leucine 100 μM added or not added outside the cells. Here is the method: Further, ^14C-leucine was similarly injected into oocytes into which LAT1 gene cRNA and 4F2hc gene cRNA of rat were injected together (Kanai et al., J. Biol. Chem., volume 273, page 23629, […]), washed with an ice-cooled Na^+-free uptake solution containing no leucine and transferred to a Na^+-free uptake solution to which leucine (100 μM) was added or not added at room temperature (18° C.-22° C.) whereupon the amount of ^14C-leucine released outside the cells was measured.
In the drawing, 0 is the case where, in the release of ^14C-leucine in the oocytes into which water is injected as a control instead of cRNA of rat LAT1 gene and cRNA of rat 4F2hc gene, a Na^+-free uptake solution to which no leucine is added is used; ● is the case where, in the release of ^14C-leucine in the oocytes into which water is injected as a control instead of cRNA of rat LAT1 gene and cRNA of rat 4F2hc gene, a Na^+-free uptake solution to which leucine is added is used; ● is the case where, in the release of ^14C-leucine in the oocytes into which cRNA of rat LAT1 gene and cRNA of rat 4F2hc gene are injected, a Na^+-free uptake solution to which no leucine is added is used; and ▪ is the case where, in the release of ^14C-leucine in the oocytes into which cRNA of rat LAT1 gene and cRNA of rat 4F2hc gene are injected, a Na^+-free uptake solution to which leucine is added is used.

Data set [2] addresses T2, asc-1 of mouse (co-expressed with 4F2hc of mouse) (Mus musculus, UniProt P63115).
T2 construct: expressed in transfected cells; host or cells: Xenopus oocytes injected with cRNA
T2 sequence (P63115 1-530): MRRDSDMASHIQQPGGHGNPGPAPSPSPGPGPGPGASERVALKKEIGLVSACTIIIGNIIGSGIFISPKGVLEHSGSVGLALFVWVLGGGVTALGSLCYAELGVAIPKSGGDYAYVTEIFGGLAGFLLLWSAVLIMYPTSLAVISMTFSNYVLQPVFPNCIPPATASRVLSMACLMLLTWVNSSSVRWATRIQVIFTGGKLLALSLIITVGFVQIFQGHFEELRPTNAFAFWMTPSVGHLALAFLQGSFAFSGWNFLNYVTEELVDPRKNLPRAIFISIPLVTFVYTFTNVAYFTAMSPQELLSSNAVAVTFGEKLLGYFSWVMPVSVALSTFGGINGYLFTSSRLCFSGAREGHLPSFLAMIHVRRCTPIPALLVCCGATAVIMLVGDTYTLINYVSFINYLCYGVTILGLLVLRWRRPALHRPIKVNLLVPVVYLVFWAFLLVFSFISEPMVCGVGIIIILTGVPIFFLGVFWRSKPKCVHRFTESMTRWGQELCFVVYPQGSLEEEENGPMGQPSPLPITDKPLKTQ
T2 sequence (P10852 1-526 partner): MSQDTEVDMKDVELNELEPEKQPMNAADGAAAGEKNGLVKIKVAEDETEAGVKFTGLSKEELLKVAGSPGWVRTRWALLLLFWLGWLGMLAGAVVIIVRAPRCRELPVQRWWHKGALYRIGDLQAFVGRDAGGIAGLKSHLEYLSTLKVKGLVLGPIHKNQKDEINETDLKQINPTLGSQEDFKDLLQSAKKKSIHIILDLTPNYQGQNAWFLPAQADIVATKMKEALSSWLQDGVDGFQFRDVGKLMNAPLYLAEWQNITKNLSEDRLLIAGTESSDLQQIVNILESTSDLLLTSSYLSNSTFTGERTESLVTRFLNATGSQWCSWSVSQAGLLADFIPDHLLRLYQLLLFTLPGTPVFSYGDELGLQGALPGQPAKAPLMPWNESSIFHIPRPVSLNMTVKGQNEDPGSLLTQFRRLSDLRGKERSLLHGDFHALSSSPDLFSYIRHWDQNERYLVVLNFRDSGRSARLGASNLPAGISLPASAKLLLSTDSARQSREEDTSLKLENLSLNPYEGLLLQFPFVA
The data set can be described thus: Michaelis-Menten kinetic test of substrate incorporation by Xenopus oocytes co-expressing asc-1 and 4F2hc. Format: cell-based. Particulars: ratio to the Vmax value for alanine (defined as 1.00). Here is the method: (§1) Into oocytes were injected 12 ng of asc-1 gene cRNA of mouse, 13 ng of 4F2hc gene cRNA of mouse or 12 ng asc-1 gene cRNA of mouse/13 ng of 4F2hc gene cRNA of mouse to express followed by incubating for 3 days. […] Thus, the oocytes were allowed to stand for 30 minutes in a Na^+-free uptake solution [100 mM choline chloride, 2 mM potassium chloride, 1.8 mM calcium chloride, 1 mM magnesium chloride, 5 mM HEPES; pH 7.4] containing ^14C-alanine (100 μM) as a substrate and the rate of the substrate incorporated into the cells was measured by way of counting the radioactivity incorporated thereinto.
A Michaelis-Menten kinetic test was carried out for a sodium-independent small neutral amino acid transporter asc-1 which transports L- and D-amino acids. By checking the changes in the rate of incorporation of alanine due to the difference in concentration of the alanine substrate, the Michaelis-Menten kinetic test of asc-1 was carried out.
An experiment for the incorporation of alanine was carried out according to the method mentioned in the above Example 2(1) using the oocytes into which both asc-1 gene cRNA of mouse and 4F2hc gene cRNA of mouse were injected.
With regard to amino acids other than alanine which were used as substrates, a Michaelis-Menten kinetic was carried out as well in the same manner whereupon Km values and Vmax values were calculated. Each Vmax value in Table 1 was shown in terms of the ratio when the Vmax value of alanine was defined as 1.00.

Data set [3] deals with T2, asc-1 of mouse (co-expressed with 4F2hc of mouse). The data set can be described thus: Incorporation of radiolabeled amino acids and analogs by oocytes co-expressing asc-1 and 4F2hc. The class given is cell-based. Particulars: summary statement; asc-1 co-existing with 4F2hc. As for the experimental part: Incorporation of alanine when asc-1 gene cRNA of mouse was solely expressed in oocytes of Xenopus and when asc-1 gene cRNA of mouse and 4F2hc gene cRNA of mouse were expressed in oocytes of Xenopus together was compared.
as §1
In an experiment of incorporation of alanine by oocytes into which both asc-1 gene cRNA and 4F2hc gene cRNA of mouse were injected together, influence of the salt added to the medium was investigated.
The experiment of incorporation of alanine was carried out in accordance with the method mentioned in the above Example 2(1) using oocytes into which both asc-1 gene cRNA and 4F2hc gene cRNA of mouse were injected together. When the influence of sodium ion was checked however, a standard uptake solution (where 100 mM choline chloride was substituted with 100 mM sodium chloride) was used in place of the Na^+-free uptake solution as the uptake solution. When the influence of chlorine ion was checked, a gluconic acid uptake solution (where 100 mM sodium chloride was substituted with 100 mM sodium gluconate) was used in place of the standard uptake solution.
Incorporation by asc-1 was investigated using various amino acids and analogs thereof as substrates. Experiment for incorporation of various amino acids and analogs thereof was carried out according to the method mentioned in the above Example 2(1) using oocytes into which asc-1 gene cRNA of mouse and 4F2hc gene cRNA of mouse were injected together. With regard to the substrates however, various compounds labeled with radioactivity were used in place of ^14C-alanine.
Influence of pH was checked in an experiment for incorporation of alanine by oocytes into which both asc-1 gene cRNA and 4F2hc gene cRNA of mouse were injected together. With regard to an experiment for incorporation of alanine, the method according to that mentioned in the above Example 2 (1) was carried out using oocytes into which both asc-1 gene cRNA of mouse and 4F2hc gene cRNA of mouse were injected together.

Substrate in data set [4]: N[C@@H](Cc1ccccc1)C(=O)O
The data set can be described thus: Michaelis-Menten kinetic test of substrate incorporation by Xenopus oocytes co-expressing asc-1 and 4F2hc. Format: cell-based. As to conditions: other: oocytes with mouse asc-1 and 4F2hc cRNA; Na+-free uptake solution; pH 7.4.

Substrate in data set [5]: CC[C@H](C)[C@H](N)C(=O)O
The data set is described as above. Format: cell-based. As to conditions: other: oocytes with mouse asc-1 and 4F2hc cRNA; Na+-free uptake solution; pH 7.4.

Substrate in data set [6]: CC(C)[C@H](N)C(=O)O
Described as above. As to conditions: other: oocytes with mouse asc-1 and 4F2hc cRNA; Na+-free uptake solution; pH 7.4. The class given is cell-based.

Substrate in data set [7]: N[C@H](CO)C(=O)O
The description is as above. Format: cell-based. Particulars: other: oocytes with mouse asc-1 and 4F2hc cRNA; Na+-free uptake solution; pH 7.4.

Substrate in data set [8]: N[C@@H](CO)C(=O)O
Described as above. The class given is cell-based. Particulars: other: oocytes with mouse asc-1 and 4F2hc cRNA; Na+-free uptake solution; pH 7.4.

Substrate in data set [9]: N[C@@H](CS)C(=O)O
The description is as above. The class given is cell-based. Particulars: other: oocytes with mouse asc-1 and 4F2hc cRNA; Na+-free uptake solution; pH 7.4.

Substrate in data set [10]: CC(C)(N)C(=O)O
The description is as above. Format: cell-based. Particulars: other: oocytes with mouse asc-1 and 4F2hc cRNA; Na+-free uptake solution; pH 7.4.

Substrate in data set [11]: N[C@@H](Cc1c[nH]cn1)C(=O)O
The description is as above. Format: cell-based. Particulars: other: oocytes with mouse asc-1 and 4F2hc cRNA; Na+-free uptake solution; pH 7.4.

Substrate in data set [12]: CC(C)C[C@H](N)C(=O)O
Described as above. Format: cell-based. As to conditions: other: oocytes with mouse asc-1 and 4F2hc cRNA; Na+-free uptake solution; pH 7.4.

Substrate in data set [13]: C[C@@H](N)C(=O)O
Nature of the data set: cells, lysate or membranes. As to conditions: other: oocytes with mouse asc-1 and 4F2hc cRNA; Na+-free uptake solution; pH 7.4.

Substrate in data set [14]: CSCC[C@H](N)C(=O)O
The data set can be described thus: cells, lysate or membranes. As to conditions: other: oocytes with mouse asc-1 and 4F2hc cRNA; Na+-free uptake solution; pH 7.4.

Substrate in data set [15]: NCCC(=O)O
The data set can be described thus: cells, lysate or membranes. Particulars: other: oocytes with mouse asc-1 and 4F2hc cRNA; Na+-free uptake solution; pH 7.4.

Substrate in data set [16]: C[C@@H](O)[C@H](N)C(=O)O
The data set can be described thus: cells, lysate or membranes. Particulars: other: oocytes with mouse asc-1 and 4F2hc cRNA; Na+-free uptake solution; pH 7.4.

Substrate in data set [17]: C[C@H](N)C(=O)O
Nature of the data set: cells, lysate or membranes. Particulars: other: oocytes with mouse asc-1 and 4F2hc cRNA; Na+-free uptake solution; pH 7.4.

Substrate in data set [18]: NCC(=O)O
The data set can be described thus: cells, lysate or membranes. Particulars: other: oocytes with mouse asc-1 and 4F2hc cRNA; Na+-free uptake solution; pH 7.4.

The Km is the concentration of substrate that gives half-maximal velocity.

T1 sequence (Q63016 whole entry Q506C): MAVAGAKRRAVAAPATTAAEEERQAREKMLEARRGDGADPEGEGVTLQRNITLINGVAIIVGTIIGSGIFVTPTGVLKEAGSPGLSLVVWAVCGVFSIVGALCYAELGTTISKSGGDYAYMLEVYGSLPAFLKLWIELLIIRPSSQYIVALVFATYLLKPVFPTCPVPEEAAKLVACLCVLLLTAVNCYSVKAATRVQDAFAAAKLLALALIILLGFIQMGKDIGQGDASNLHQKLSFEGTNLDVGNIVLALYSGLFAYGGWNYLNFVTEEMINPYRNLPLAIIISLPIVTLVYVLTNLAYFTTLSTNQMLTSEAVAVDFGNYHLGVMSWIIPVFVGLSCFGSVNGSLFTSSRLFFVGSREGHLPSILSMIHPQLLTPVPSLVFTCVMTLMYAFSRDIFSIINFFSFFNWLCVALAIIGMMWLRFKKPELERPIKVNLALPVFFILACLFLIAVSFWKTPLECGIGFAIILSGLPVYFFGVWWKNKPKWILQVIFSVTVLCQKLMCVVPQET
T1 sequence (Q794F9 whole entry partner): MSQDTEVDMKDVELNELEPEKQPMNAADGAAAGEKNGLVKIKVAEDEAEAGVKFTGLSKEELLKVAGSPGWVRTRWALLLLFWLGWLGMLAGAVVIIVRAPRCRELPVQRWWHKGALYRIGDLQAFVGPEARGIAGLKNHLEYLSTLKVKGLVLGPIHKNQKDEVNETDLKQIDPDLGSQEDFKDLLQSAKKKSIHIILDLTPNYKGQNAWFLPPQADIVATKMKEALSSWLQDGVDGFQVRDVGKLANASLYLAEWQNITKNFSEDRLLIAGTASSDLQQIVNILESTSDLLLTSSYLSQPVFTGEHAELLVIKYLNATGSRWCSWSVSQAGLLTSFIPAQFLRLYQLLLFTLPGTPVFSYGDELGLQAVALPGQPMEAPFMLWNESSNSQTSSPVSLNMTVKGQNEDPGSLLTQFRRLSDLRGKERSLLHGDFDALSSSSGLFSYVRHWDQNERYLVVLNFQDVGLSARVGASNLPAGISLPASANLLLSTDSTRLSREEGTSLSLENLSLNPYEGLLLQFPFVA

As for `CC(C)C[C@H](N)C(=O)O` [L-Leucine], the “release of 14C-leucine” value in data set [1] was “observed only when leucine was added”. For the same molecule, the Vmax in data set [2] worked out at 0.58. Moreover, the “transport by asc-1 (affinity in words)” value in data set [3] is on record as “lowly affinitive”.

B1: asc-1 of mouse (co-expressed with 4F2hc of mouse) (Mus musculus) (protein)
chain: MRRDSDMASHIQQPGGHGNPGPAPSPSPGPGPGPGASERVALKKEIGLVSACTIIIGNIIGSGIFISPKGVLEHSGSVGLALFVWVLGGGVTALGSLCYAELGVAIPKSGGDYAYVTEIFGGLAGFLLLWSAVLIMYPTSLAVISMTFSNYVLQPVFPNCIPPATASRVLSMACLMLLTWVNSSSVRWATRIQVIFTGGKLLALSLIITVGFVQIFQGHFEELRPTNAFAFWMTPSVGHLALAFLQGSFAFSGWNFLNYVTEELVDPRKNLPRAIFISIPLVTFVYTFTNVAYFTAMSPQELLSSNAVAVTFGEKLLGYFSWVMPVSVALSTFGGINGYLFTSSRLCFSGAREGHLPSFLAMIHVRRCTPIPALLVCCGATAVIMLVGDTYTLINYVSFINYLCYGVTILGLLVLRWRRPALHRPIKVNLLVPVVYLVFWAFLLVFSFISEPMVCGVGIIIILTGVPIFFLGVFWRSKPKCVHRFTESMTRWGQELCFVVYPQGSLEEEENGPMGQPSPLPITDKPLKTQ
notes: expressed in transfected cells; host or cells: Xenopus oocytes injected with cRNA
On to B1, for which the Km came to 464 µM in [4]; 160 µM in data set [5]; 112 µM in data set [6]; 52.0 µM in [7]; 11.3 µM in data set [8]; 23.7 µM in [9]. In addition, the Michaelis constant (Km) in [10] was 22.7 µM; in data set [11], 368 µM; in [12] it was 245 µM; in data set [13] it was 100 µM; in [14] it was 139 µM; in [15] it was 281 µM. Moreover, the Michaelis-Menten constant (Km) is 19.3 µM in data set [16], 23.0 ± 5.1 µM in data set [17] and 7.8 µM in data set [18].
